Where a chain is given by its changes, count along the chain named.
B1: NORO-312A (antibody, V domains shown)
VH: QVQLVESGGALVKPGESLRLSCAASGFTFSDSYMSWIRQAPGKGLEWVAYISGIMSSTNYADSVKGRFTISRDNGKNSVYLQMNNLRAEDTAVYYCARDAQYCSGGRCYLVFDYWGQGTLVTVSS
VL: QSVLTQPPSVSGAPGQRVTISCTGSSSNIGAGYEVHWYQQLPGAAPKLIIYGNNNRPSGVPDRFSGSKSGTSASLAITGLQADDEADYYCQSYDNRLRVFGGGTKLTVL
B2: NORO-317 (antibody, V domains shown)
VH: QVQLVESGGGLVKPGGSLRLSCVASGFTFSDYYISWVRQAPGKGLEWVSYISAINSYTNYADSVRGRFTVSRDNAKKSVFLQMNSLRVDDTAVYYCARDVGGSVRYSSNSNKKSYNYFDPWGQGTLVTVSS
VL: SYELTQPPSVSVSPGQTATITCSGDVLSKEFAYWYQQKPGQAPVLVIYKDNERPSGIPERFSGSTSGTTVTLTISGVLAEDEAHYYCQSVDTRGTYKVFGGGTKLTVL
B3: NORO-303 (antibody, V domains shown)
VH: QVQLVESGGGVVQPGRSLRLSCAASGFIFSSYAMHWVRQAPGKGLEWVAVMSYDGNNKYYADSVKGRFTISRDNSKNTLFLQMNSLRPEDTAVYYCARDCRVGWVFTYGMDVWGQGTLVTVSS
VL: QSALTQPPSASGSPGQSVTISCTGTSSDVGGYNYVSWYQQHPGKAPKLMMYEISKRPSGVPIRFSGSKSGNTASLTVSGLQAEDEADYYCSSYAGTYNCVVFGGGTKLTVL
B4: NORO-263 (antibody, V domains shown)
VH: QVQLVESGGGLVKPGGSLRLSCAASGFTLSDYYMSWIRQAPGKGLEWVAYISSSHTSTYYRDSVKGRFTISRDSAKKSLYLQMNSLRVEDTAIYYCARDWVGGRSAYSDHWGQGTLVTVSS
VL: SYELTQPPSVSVSPGQTARITCSGDALPRRPAFWYQQKSGQAPVLVMYDDSKRPSGIPERFSGSSSGTVATLTISGAQVEDEADYHCYSTDSSGKERVFGGGTKLTVL
B5: NORO-296A (antibody, V domains shown)
VH: QVQLVESGGGLVKPGGSLRLSCAASGFTFSEYYMSWVRQAPGKALEWVSYITSSFSSTSYADSVKGRFVISRDNAKNSLYLQMNSLRVEDTAVYYCARYGAEYGSRSFYFLDWGQGTLVTVSS
VL: QSVLTQPPSVSGAPEQRVTISCTGSSSNIGAGYDVHWYQVLPGIAPKLLIYDNNKRPSGVPDRFSGSKSGTSASLAITGLQAEDEADYYCQSYDSRLSSNVVFGGGTKLTVL
B6: NORO-315B (antibody, V domains shown)
VH: QVQLVESGGGLVKPGGSLRLSCVASGFTFSDYYMTWFRQTPGRGLEWLSYISAIGGYTEYADSVKSRFIISRDNGKKSLYLQMNSLRAEDSGVYYCAREDCHGTSCYSGDWGQGTLVTVSS
VL: QSVLTQPPSVSGAPGQRVTISCTGSSSNIGAGYDVHWYQQLPGTAPKLLIYHNTNRPSGVPDRFSGSKSGTSAYLTITGLQAEDEADYYCQSYDRSLSKSRVFSGGTKLTVL
B7: NORO-251A (antibody, V domains shown)
VH: QVQLVESGGGVVQPGRSLRLSCAASGFTFRSYGIHWVRQAPGKGLEWVALISYDGSSKYYADSVKGRFTISRDNSKNTLYLQMNSLRSEDTAVYYCAKVRLTSYSIGWFSFDYWGQGTLVTVSS
VL: QSVLTQPPSVSAAPGQKVTISCSGSSSNIANYYVSWYQQLPGRAPKLLIYDNNKRPSGIPDRISGSKSGTSATLGITGLQTGDEADYYCGTWDTSLSAWVFGGGTKLTVL
B8: NORO-256A (antibody, V domains shown)
VH: QVQLVESGGGVVQAGRSLRLSCAASGFTFRSYGMHWVRQAPGKGLEWVAIISYDGGSKYYADSVKGRFTISRDNSKNTLYLQMNSLRVEDTALYYCAKDFLRVYSYGWHSFDIWGLGTLVTVSS
VL: QSVLTQPPSVSAAPGQRVTISCSGSSSNIGTYYVSWYQHLPGTAPKLLIYDNDKRPSGIPDRFSASKSGTSATLDIAGLQTGDEADYYCGTWDLSLTAGWVFGGGTKLTVL
B9: NORO-278 (antibody, V domains shown)
VH: QVQLVESGGGVVQPGRSLRLSCAASGFTFSSYGMHWVRQAPGKGLEWVAVISYDGSNKYYADSVKGRFTISRDNSKNTLYLQMNSLRAEDTAVYYCAKVTIIAAADLLDYWGQGTLVTVSS
VL: B5 VL with E15G, V40Q, I44T, D52G, N54S, K55N, R96S, S99G, N100P
B10: NORO-313.1 (antibody, V domains shown)
VH: QVQLVESGGGLVKPGGSLRLSCAASGFTFSDFYMSWIRQAPGKGLEWVGYISSIAGATNYADSVKGRFTISRDSSKRSLYLQMNSLRVEDTAVYYCARMGRLELERRPHYYYPLDVWGQGTLVTVSS
VL: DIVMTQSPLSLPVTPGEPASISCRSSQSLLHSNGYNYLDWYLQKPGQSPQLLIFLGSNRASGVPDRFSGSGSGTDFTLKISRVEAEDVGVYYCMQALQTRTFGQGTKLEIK
B11: NORO-123 (antibody, V domains shown)
VH: QVQLVESGGGVVQPGRSLRLSCSTSGFTFSQYPMHWVRQAPGKGLEWVALISYDGMNKYYADSVRGRFTISRDNSENTQYLQMNSLRGDDTAVYYCARVTGDCTGNRCSYWAYYYYGLDVWGQGTLVTVSS
VL: QSALTQPPSASGSPGQSVTISCTGTSSDVGGYKYVSWYQQHPGKAPKLMIYEVTRRPSGVPDRFSGSKSGNTAFLTVSGLQAEDEADYYCGSYAGSTTSGYVFGTGTKVIVL
B12: NORO-310A (antibody, V domains shown)
VH: EVQLVESGGGLVRPGESLRLSCVASGFSVSDNYMSWVRQAPGKGLQWVSVIYSGGTTFYTDSVKGRFTISRDKSKNTLFLQMNSLRAEDTAVYFCTRDPSQYYDSRGHYYQTFTPSFDSWGQGTLVTVSS
VL: DIQMTQSPSVMSASVGDRVTITCRASQDISDYLAWFQQKPGKVPKRLIYAASSLQNGVPSRFSGSGSGTEFTLTISSLQPEDFATYYCLQHDTYPLTFGGGTKVEIK
B13: NORO-273A (antibody, V domains shown)
VH: QVQLVQSGAEVKKPGASVKISCKASGYDFTSFPMHWVRLGPGQRLEWMGWISAANGNTKYSQKFQDRFTITRDTSASIVHMELSSLRSEDTAVYYCARGGYSSGLYRYSNYYYGMTVWGQGTLVTVSS
VL: DIVMTQTPLSLSVTPGQPASISCKSSESLLHNDRKTYLFWYLQKPGQPPQLLIFQVSNRFSGVPDRFSGSGSGTDFTLRISRVEAEDVGIYYCLQTTQLPLTFGGGTKVEIK
B14: NORO-250B (antibody, V domains shown)
VH: QVQLVESGGGLVKPGGSLTLSCAASGFTFSDYYMNWIRQAPGKRLEWVSYISGIMSSTNYADSVKGRFTISRDTAKKSVYLQMNSLRAEDTAVYYCARATSQGATSYYFDSWGQGTLVTVSS
VL: QSVLTQPPSVSGAPGQRVTISCTGSSSNIGADYDVHWYQQLPGAAPRLLIYADINRPSGVPDRFSGSKSGTSASLAITGLQAEDEADYYCQSYDRSVSGSAVFGGGTKVTVL
B15: NORO-279A (antibody, V domains shown)
VH: QVQLVESGGGVVQPGRSLRLSCAASGFTFTKYGMHWVRQAPGKGLEWVAFIAYDGSVKYYGDSAKGRFAISRDNPKNTVYLQMNSLRAEDTAVYYCAKVEIHYYSNSLLGMDVWGQGTLVTVSS
VL: QSVLTQPPSASGTPGQRVTISCSGGNSNIGISYVYWYQHLPGTAPKLLISKNNLRPSGVPDRFSASKSGTSASLAISGLRSEDEAEYYCATLDINMTWVFGGGTKLTVL
B16: NORO-202A.1 (antibody, V domains shown)
VH: QVQLVQSGAEVKKPGASVKVSCKASEYTFTGYYLQWVRQAPGHGLEWMGWINPSGGTKYSQKFQGRVTMTRDTSITTVYMELSRLRSDDTAVYYCARDLLRNWGDHDAFDVWGQGTMVTVSS
VL: QSVLTQPPSASETPGQGVTISCSGSSSNIGSNFVCWYQQVPGTAPKLLIYKNNQRPSGVPDRFSGSKSGTSASLAISGLRSEDEADYYCSAWDDSLSGPVFGGGTKLTVL

biological target: GII.4 Sydney 2012 virus-like particles (VLPs), based on strain AFV08795.1 (human norovirus GII.4 Sydney 2012, UniProt P54635 1-538, The particle is a multimeric assembly of VP1 with a little VP2 inside; one VP1 chain is given.); experiment: indirect ELISA, VLP coated

**Q.** B1 was tested. Which EC50 did it give?
**A.** The EC50 was 0.4 µg/mL.

**Q.** B2 was tested. Which EC50 did it give?
**A.** Its EC50 is 0.4 µg/mL.

**Q.** With B3 as the binder, how does the EC50 read?
**A.** Its EC50 is 0.5 µg/mL.

**Q.** B4 was tested. Which EC50 did it give?
**A.** Its EC50 is 0.6 µg/mL.

**Q.** For B5, which EC50 is on record?
**A.** Its EC50 is 0.6 µg/mL.

**Q.** With B6 as the binder, how does the EC50 read?
**A.** The EC50 was 0.7 µg/mL.

**Q.** How did the EC50 turn out when B7 was run?
**A.** Its EC50 is 0.9 µg/mL.

**Q.** Which EC50 does the source give for B8 here?
**A.** Its EC50 is 0.9 µg/mL.

**Q.** B9 was tested. Which EC50 did it give?
**A.** The EC50 was 4 µg/mL.

**Q.** With B10 as the binder, how does the EC50 read?
**A.** The EC50 was 0.1 µg/mL.

**Q.** How did the EC50 turn out when B11 was run?
**A.** Its EC50 is 5.4 µg/mL.

**Q.** With B12 as the binder, how does the EC50 read?
**A.** Its EC50 is 6.2 µg/mL.

**Q.** With B13 as the binder, how does the EC50 read?
**A.** The EC50 was 0.2 µg/mL.

**Q.** With B14 as the binder, how does the EC50 read?
**A.** The EC50 was 0.2 µg/mL.

**Q.** With B15 as the binder, how does the EC50 read?
**A.** The EC50 was 0.2 µg/mL.

**Q.** With B16 as the binder, how does the EC50 read?
**A.** Its EC50 is 0.4 µg/mL.
